Experimental data from US11497796B2, “Agents directed against a cis RGMa/neogenin interaction or lipid rafts and use of the same in methods of treatment” (UNIVERSITY HEALTH NETWORK, priority 2013, dated 2022).

B1: 4Ig: four immunoglobulin-like domains of Neogenin, amino acids 1 to 383 of Accession No. AAC59662 (SEQ ID NO:1) (protein, listed as Gallus gallus)
chain: RSGPRSPLTGSVVRTFTPFYFLVEPMDILSVRGASVIMNCSSYCETPPKIEWKKDGTLLNLVSDDRRQLLPDGSLLINSVVHSKHNKPDEGYYQCVATVESLGSIVSRTAKLTVAGLPRFTSQPELSSVYKGNSAILNCEVNVDLAPFVRWEQDRQPLSLDDRVFKLPSGALLIGNATDTDGGFYRCVIESGGTPKYSEEAELKILPDPEEPQSLVFVRQPSSLTKVTGQNAVFPCVAGGFPTPYVRWTKNGEELITEDSERFALRAGGSLLISDVTEEDVGTYTCIADNENETIEAQAELAVQVPPEFLKRPANIYAHESMDIVFECEVTGKPTPTVKWVKNGDVVIPSDYFKIVKEHNLQVLGLVKSDEGFYQCIAENDVGNAQAGAQLIILDLDVAIPTLPPTSLTSATNDHLAPATTGPLPTAPRDVVATLVSTRFIRLTWRTPVSDPQGDNLTYSIFYTKEGINRERVENTSRPGETQVMIQNLMPETVYVFRVVAQNKHGHGESSAPLKVATQPEVQLPGPAPNIRAYAGSPTSVTVTWETPLSGNGEIQNYKLYYMEKGQDSEQDVDVAGLSYTITGLKKYTEYSFRVVAYNKHGPGVSTQDVVVRTLSDVPSAAPQNLTLEARNSKSIMLHWQPPPAGTHSGQITGYKIRYRKVSRKSDVTESVGGTQLFQLIEGLERGTEYNFRIAAMTVNGTGPATDWVSAETFESDLDESRVPEVPSSLHVRPLVTSIVVSWTPPENQNIVVRGYAIGYGIGSPHAQTIKVDYKQRYYTIENLDPSSHYVITLKAFNNVGEGIPLYESAVTRPHSDTSEVDLFVINAPYTPVPDPSPMMPPVGVQASILSHDTIRITWADNSLPKNQKITDARYYTVRWKTNIPANTKYKTANATTLSYLVTGLKPNTLYEFSVMVTKGRRSSTWSMTAHGTTFELVPTSPPKDVTVVSKEGKPRTIIVNWQPPSEANGKITGYIIYYSTDVNAEIHDWVIEPVVGNRLTHQIQELTLDTPYYFKIQARNSKGMGPMSEAVQFRTPKAESSDKMPNDQASGSAGKGSRPVDVGPDYKPPLSGSNSPHGSPTSPLDSNMLLVIIVSVGVITIVIVVIVAVFCTRRTTSHQKKKRAACKSVNGSHKYKGNSKDVKPPDLWIHHERLELKPIDKSPDPNPIMTDTPIPRNSQDITPVDNSMDSNIHQRRNSYRGHESEDSMSTLAGRRGMRPKMMMPFDSQPPQPVISAHPIHSLDNPHHHFHSGSLASPTRSYLHHQVSPWPVGTSMSHSDRANSTESVRNTPSSDTMPASSSQPCADHQDPDSSSGAYLGSAQEEDAAQSLPTAHVRPSHPLKSFAVPAVPAAGSAYDPTLPSTPLLTQQAPSHPVHSVKTASIGTLGRTRPPMPVVVPSAPDVQETTRMLEDSESSYEPDELTKEMAHLEGLMKDLNAITTA
modifications: Neogenin - Accession No. AAC59662

How the values were obtained:
4Ig-domain of DCC = assay: AP binding assay on coated DCC-4Ig; details: closest Neogenin homologue, specificity control
Description: (A) Different RGMa-AP proteins were incubated on wells coated with the 4Ig 6FNIII or BSA. […] Data were average±SEM (n=3 independent experiments), *p<0.005. (B) Quantification of a binding assay where 4Ig-AP and 6FNIII-AP proteins were assayed on wells coated with proteins from different RGMa regions. […] Thus, two N-RGMa fragments were identified (N-Raft and N-RGMa77-113) that bound the 4Ig and 6FNIII domains in Neogenin, respectively. C-RGMa proteins and full length RGMa only bound 6FNIII. Data were average±SEM (n=3 independent experiments), *p<0.005. […] Quantification of a binding assay where N-RGMa-AP was assayed on wells coated with proteins DCC-4Ig and Neogenin-4Ig. In this experiment Neogenin-4Ig but not DCC-4Ig interacted with N-Raft-AP. Data were average±SEM (n=4 independent experiments), *p<0.005. (D) Cis-interaction between the 4Ig domain of Neogenin and N-Raft is required for localization of Neogenin in lipid rafts. HEK-293 cells were transfected with Neogenin and RGMa constructs. BMP2 (100 nM) was added to the medium 1 hour before cells were collected. Western blotting was performed following lipid raft fractionation. Flotillin was used as a marker for lipid raft fractions, whereas the transferrin receptor (TfR) was used as a marker for heavy membrane-fractions. Every experiment was repeated twice. […]

[1] = target: T1, 4Ig-domain of Neogenin (His-4Ig) (Gallus gallus, UniProt Q90610); assay: Pull-down assay with peptide-coated beads; assay type: binding; details: Western blot with anti-His
T1 construct: 6-His (N); myc (C); 6-His (C); made in house
T1 sequence (Q90610 1-383): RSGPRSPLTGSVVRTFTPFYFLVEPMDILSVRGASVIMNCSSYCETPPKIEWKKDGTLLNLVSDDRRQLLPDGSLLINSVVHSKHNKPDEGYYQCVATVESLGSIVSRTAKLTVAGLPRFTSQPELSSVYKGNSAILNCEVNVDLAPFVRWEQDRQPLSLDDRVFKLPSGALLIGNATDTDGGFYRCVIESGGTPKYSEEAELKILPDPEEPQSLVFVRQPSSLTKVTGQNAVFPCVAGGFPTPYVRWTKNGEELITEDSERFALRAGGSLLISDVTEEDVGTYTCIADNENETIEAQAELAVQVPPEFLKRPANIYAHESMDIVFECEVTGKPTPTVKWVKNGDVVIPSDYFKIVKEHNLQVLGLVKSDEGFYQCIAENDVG
Description: (A) RGMa proteins were incubated on plates coated with 4Ig- or 6FNIII-AP. One C- and one N-RGMa domain (N-RGMa^77-113) interacted with 6FNIII. One N-RGMa domain (N-Raft) interacted with 4Ig. (B) Supernatants (Sup) from cells expressing His-6FNIII or His-4Ig, were pulled down (IP) with beads coated with N-Raft, N-RGMa^50-99, and N-inh. Western Blot was then performed with an anti-His antibody to reveal whether or not His-6FNIII or His-4Ig interacted with the coated beads. […] Data are average±SEM (n=3 independent experiments), *p<0.0001. Scale bar, 100 μm. (E) Chick brains were injected with control peptide (Ctrl; N-RGMa^50-99), 4Ig, N-Raft, or Noggin 1 day before preparing membrane fractionations. In control experiments, Neogenin localized to the Flotillin/RGMa-containing lipid raft fraction (as shown in solid lined boxes). 4Ig, N-Raft, or Noggin shifted Neogenin to heavy fractions.
Proteins were coupled to activated CNBr Sepharose beads (Pharmacia) according to supplier instructions. Supernatants from transfected cells were added to coupled beads for 2 h at room temperature (RT). Beads were then washed 6× with PBS plus 0.02% Tween 20, and SDS loading buffer was added. Samples were boiled and subjected to Western blotting.

retinal whole mounts = assay: Oxygen Glucose Deprivation (OGD) in retinal whole mounts, PI staining; assay type: cell-based; details: OGD in presence of 4Ig
Description: Specifically, retinal whole mounts were subjected to OGD for 1 hour. After ischemia, whole mounts were incubated for 24 hours and dead cells were identified using propidium iodide (PI) staining.
To determine whether Neogenin required lipid raft association to induce cell death, OGD was performed on retinal whole mounts in the presence of 4Ig, which as described above, prevented Neogenin localization into lipid rafts.

EAE paralysis = assay: EAE mouse model of multiple sclerosis; assay type: in vivo; details: 3 μg IV at days 3, 6, 9; after 17 days; control approaching 5
Description: Specifically, whether or not 4Ig reduced paralysis in the EAE model was tested. To induce EAE, C57BL6/J mice were injected with an emulsion of MOGp35-55 peptide (50 μg, day 0) mixed with complete Freund's adjuvant (CFA). On day 2, the animals also received 400 ng of pertussis toxin (PTX) intraperitoneally in order to produce severe and reliable EAE and then were examined for clinical signs in over a 17 day period (FIG. 28).
At days 3, 6, and 9 post-EAE induction, animals were treated with either 3 μg of 4Ig in PBS (IV injection) or PBS (Control).

| Molecule | interaction with the 4Ig-domain of DCC (4Ig-domain of DCC) | pull-down of 4Ig-domain by peptide-coated beads [1] | reduction of the number of dead neurons compared to controls (retinal whole mounts) | clinical score (EAE paralysis) |
| --- | --- | --- | --- | --- |
| N-Raft: peptide spanning amino acids 28-73 of RGMa (SEQ ID NO:2) (SPCKILKCNSEFWAATSGSHHLGAEETPEFCTALRAYAHCTRRTAR; N-Raft - amino acids 28-73 of RGMa) | No significant interaction | pulled down | – | – |
| B1 | – | – | two-fold | 1.4 |
